Results on 4 molecules are retold here after CN117866903A (BEILAI PHARMACEUTICAL CO LTD, dated 2024).

Test [1] concerns the target T1, Human IL-17A重组蛋白 (Gly 24-Ala 155, C端6×His) (human, biotinylated in the ELISA of paragraph 251 (Biotin-IL-17A-His)). The experiment in a line: ELISA: antibody coated at 2 μg/mL, Biotin-IL-17A-His titrated from 10 μg/mL (5-fold, 7 points), HRP-streptavidin. In general terms: ELISA stands for enzyme-linked immunosorbent assay.
For test [2], the target named is T1, Human IL-17A重组蛋白 (Gly 24-Ala 155, …). The experiment in a line: BLI (ForteBio OCTET R2): IL-17A-His at 5 μg/mL on HIS1K sensor, antibody 50-3.13 nM, 25℃.
Test [3] has the same target. The experiment in a line: cell-based or functional assay.

T1 sequence (chain, as listed by the source): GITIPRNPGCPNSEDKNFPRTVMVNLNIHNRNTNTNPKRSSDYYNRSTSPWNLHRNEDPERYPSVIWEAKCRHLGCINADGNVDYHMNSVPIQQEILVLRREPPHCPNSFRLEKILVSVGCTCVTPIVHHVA

B1: 单域抗体1-C3 (Fc fusion)
chain: DVQLVESGGGLVEPGESLRLSCAAPGEDLGYYAIAWFRQAPGKEREVVSCVTSSGSSTNYLSSVKDRFTISIDNAKNTVYLQMNSLKPEDTAVYYCASTILLCSDYISAFGTWGQGTQVTVAS
notes: not shown: human IgG1 Fc of vector pcDNA3.4-hIgG1-Fc
The EC50 is the midpoint of the concentration-response curve. Low values mean an effect from little substance, high ones a need for much substance. With B1, in test [1], a half-maximal effect (EC50) was put at 5.28 µg/mL.

B2: 阳性对照抗体Ixekizumab (antibody, human IgG4 S228P, kappa, V domains shown)
VH: QVQLVQSGAEVKKPGSSVKVSCKASGYSFTDYHIHWVRQAPGQGLEWMGVINPMYGTTDYNQRFKGRVTITADESTSTAYMELSSLRSEDTAVYYCARYDYFTGTGVYWGQGTLVTVSS
VL: DIVMTQTPLSLSVTPGQPASISCRSSRSLVHSRGNTYLHWYLQKPGQSPQLLIYKVSNRFIGVPDRFSGSGSGTDFTLKISRVEAEDVGVYYCSQSTHLPFTFGQGTKLEIKR
notes: also called 阳性抗体; 依奇珠单抗
By Kd is commonly meant the free concentration of one partner at which half of the binding sites on the other are occupied at equilibrium, for simple one-to-one binding. In turn, B2 gave an EC50 in test [1] of 10.1 µg/mL. The molecule also gave a Kd in test [2] of 391 pM. In addition, the “串联单域抗体阻断活性检测 (293F-IL-17RA-IL-17Rc-ACT1-NFκB-Luc报告基因细胞株), IC50” value in test [3] amounted to 2240 pM.

B3: 串联单域抗体1-C3-3-H10 (VHH-(GGGGS)3-VHH-IgG1 Fc) (Fc fusion)
chain: DVQLVESGGGLVEPGESLRLSCAAPGEDLGYYAIAWFRQAPGKEREVVSCVTSSGSSTNYLSSVKDRFTISIDNAKNTVYLQMNSLKPEDTAVYYCASTILLCSDYISAFGTWGQGTQVTVASGGGGSGGGGSGGGGSEVQLVESGGGLVQPGGSLRLSCAASGFSIHIYAMGWYRQAPGKQRELVATITRGGVTNNADSVKGRFTISRDNAKNTAYLQMNSLKPEDTAVYYCNAGGTNGGYWGQGTQVTVSS
notes: also called C3-H10; C3-H10重组蛋白; not shown: human IgG1 Fc
B3 registered an EC50 in test [1] of 1.13 µg/mL. For the same molecule, the Kd in test [2] is 1320 pM. Moreover, the “串联单域抗体阻断活性检测 (293F-IL-17RA-IL-17Rc-ACT1-NFκB-Luc报告基因细胞株), IC50” value in test [3] worked out at 630 pM.

B4: 单域抗体3-H10 (Fc fusion)
chain: EVQLVESGGGLVQPGGSLRLSCAASGFSIHIYAMGWYRQAPGKQRELVATITRGGVTNNADSVKGRFTISRDNAKNTAYLQMNSLKPEDTAVYYCNAGGTNGGYWGQGTQVTVSS
notes: as for B1
In test [1], B4 came in with an EC50 of 1.22 µg/mL.
